In the supplement of paper PMC10567573 one finds protein stability index data, which are given here for 94 variants.

First the molecules themselves.
B1: ZNF24 (parent)
chain: YGETCFPKGRFERKRNPSRKKQHI
B2: VPS39 (parent)
chain: QQVKCIITEEKVCMVCKKKIGNSA
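Also: lentivirally expressed fusions sorted by FACS into six bins by GFP to DsRed ratio, PSI derived from sequencing read proportions per bin multiplied by bin number.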

In the first data set the parent is B1. Nature of the data set: protein stability index of a GFP-peptide fusion (GPS, HEK-293T) (PSI 1-6); higher = more stable. Conditions: c terminus: a fixed tail appended.
In the case of YGETCFPKGRFERKRNPSRKKQHY [I24Y], the protein stability index stood at 3.
The same measure, in the same setting: the value for YGETCFPKGRFERKRNPSRKKQHW [I24W] was 2.3; that for YGETCFPKGRFERKRNPSRKKQHM [I24M] was 2.57.
Still for that read-out and setting: with YGETCFPKGRFERKRNPSRKKQHK [I24K] the figure was 3.22; with YGETCFPKGRFERKRNPSRKKQHF [I24F], 2.71.
As to YGETCFPKGRFERKRNPSRKKQHD [I24D], the protein stability index stood at 2.6.
Consider YGETCFPKGRFERKRNPSRKKQHE [I24E], for which the protein stability index amounted to 3.13.
On the same count and under the same terms, with YGETCFPKGRFERKRNPSRKKQHC [I24C] the figure was 2.9.
On to YGETCFPKGRFERKRNPSRKKQHS [I24S], for which the protein stability index amounted to 2.77.
As to YGETCFPKGRFERKRNPSRKKQHA [I24A], the protein stability index worked out at 3.43.
For the variant YGETCFPKGRFERKRNPSRKKQHN [I24N], the protein stability index was determined as 3.54.
Same read-out and setting: with YGETCFPKGRFERKRNPSRKKQHQ [I24Q] the figure was 3.08; with YGETCFPKGRFERKRNPSRKKQHT [I24T], 3.42; with YGETCFPKGRFERKRNPSRKKQHL [I24L], 2.78.
The same measure, in the same setting: with YGETCFPKGRFERKRNPSRKKQHV [I24V] the figure was 3.
As to YGETCFPKGRFERKRNPSRKKQHP [I24P], the protein stability index was 2.29.
Regarding YGETCFPKGRFERKRNPSRKKQHH [I24H], the protein stability index came to 2.93.
Regarding YGETCFPKGRFERKRNPSRKKQHR [I24R], the protein stability index amounted to 2.86.
Same read-out and setting: with YGETCFPKGRFERKRNPSRKKQHG [I24G] the figure was 2.64.
On to YGETCFPKGRFERKRNPSRKKQYI [H23Y], for which the protein stability index is 2.76.
Consider YGETCFPKGRFERKRNPSRKKQWI [H23W], for which the protein stability index turned out to be 2.3.
Still for that read-out and setting: the value for YGETCFPKGRFERKRNPSRKKQPI [H23P] was 3.1; that for YGETCFPKGRFERKRNPSRKKQNI [H23N] was 2.85; that for YGETCFPKGRFERKRNPSRKKQQI [H23Q] was 2.95.
Regarding YGETCFPKGRFERKRNPSRKKQSI [H23S], the protein stability index was determined as 2.56.
On the same count and under the same terms, with YGETCFPKGRFERKRNPSRKKQRI [H23R] the figure was 2.73; with YGETCFPKGRFERKRNPSRKKQVI [H23V], 2.78; with YGETCFPKGRFERKRNPSRKKQTI [H23T], 2.43.

The variants in a further data set derive from B2. Described as above. The settings on record: c terminus: a fixed tail appended.
QQVHCIITEEKVCMVCKKKIGNSA [K4H]: the protein stability index stood at 2.44.
Take QQVDCIITEEKVCMVCKKKIGNSA [K4D]: the protein stability index stood at 2.68.
The same measure, in the same setting: with QQVMCIITEEKVCMVCKKKIGNSA [K4M] the figure was 1.83.
The same measure, in the same setting: the value for QQVSCIITEEKVCMVCKKKIGNSA [K4S] was 2.22; that for QQVWCIITEEKVCMVCKKKIGNSA [K4W] was 2.25; that for QQVQCIITEEKVCMVCKKKIGNSA [K4Q] was 2.77.
The same measure, in the same setting: the value for QQVCCIITEEKVCMVCKKKIGNSA [K4C] was 3.6; that for QQVVCIITEEKVCMVCKKKIGNSA [K4V] was 2.19; that for QQVTCIITEEKVCMVCKKKIGNSA [K4T] was 2.44.
As to QQVLCIITEEKVCMVCKKKIGNSA [K4L], the protein stability index is 1.77.
Still for that read-out and setting: with QQVGCIITEEKVCMVCKKKIGNSA [K4G] the figure was 2.81.
On the same count and under the same terms, the value for QQVPCIITEEKVCMVCKKKIGNSA [K4P] was 3.12; that for QQVFCIITEEKVCMVCKKKIGNSA [K4F] was 1.42; that for QQVRCIITEEKVCMVCKKKIGNSA [K4R] was 2.53.
Regarding QQVYCIITEEKVCMVCKKKIGNSA [K4Y], the protein stability index turned out to be 1.42.
Consider QQVECIITEEKVCMVCKKKIGNSA [K4E], for which the protein stability index turned out to be 3.28.
On the same count and under the same terms, with QQVICIITEEKVCMVCKKKIGNSA [K4I] the figure was 1.19; with QQVACIITEEKVCMVCKKKIGNSA [K4A], 2.72.
Take QQVNCIITEEKVCMVCKKKIGNSA [K4N]: the protein stability index worked out at 2.83.
Same read-out and setting: the value for YQVKCIITEEKVCMVCKKKIGNSA [Q1Y] was 1.64.
In the case of PQVKCIITEEKVCMVCKKKIGNSA [Q1P], the protein stability index stood at 2.79.
Still for that read-out and setting: the value for VQVKCIITEEKVCMVCKKKIGNSA [Q1V] was 1.11; that for IQVKCIITEEKVCMVCKKKIGNSA [Q1I] was 1.9.
Same read-out and setting: the value for HQVKCIITEEKVCMVCKKKIGNSA [Q1H] was 2.59; that for SQVKCIITEEKVCMVCKKKIGNSA [Q1S] was 2.57; that for LQVKCIITEEKVCMVCKKKIGNSA [Q1L] was 2.62.
Turning to NQVKCIITEEKVCMVCKKKIGNSA [Q1N], the protein stability index was found to be 2.91.
Still for that read-out and setting: the value for DQVKCIITEEKVCMVCKKKIGNSA [Q1D] was 3.69.
On the same count and under the same terms, the value for EQVKCIITEEKVCMVCKKKIGNSA [Q1E] was 2.67; that for AQVKCIITEEKVCMVCKKKIGNSA [Q1A] was 1.95; that for FQVKCIITEEKVCMVCKKKIGNSA [Q1F] was 1.49.
Take CQVKCIITEEKVCMVCKKKIGNSA [Q1C]: the protein stability index was determined as 2.4.
Still for that read-out and setting: with GQVKCIITEEKVCMVCKKKIGNSA [Q1G] the figure was 3.05; with RQVKCIITEEKVCMVCKKKIGNSA [Q1R], 2.24.
The same measure, in the same setting: with WQVKCIITEEKVCMVCKKKIGNSA [Q1W] the figure was 1.98; with KQVKCIITEEKVCMVCKKKIGNSA [Q1K], 1.88; with MQVKCIITEEKVCMVCKKKIGNSA [Q1M], 1.83.
Take TQVKCIITEEKVCMVCKKKIGNSA [Q1T]: the protein stability index was determined as 2.52.
Take QQVKGIITEEKVCMVCKKKIGNSA [C5G]: the protein stability index was 2.82.
QQVKTIITEEKVCMVCKKKIGNSA [C5T]: the protein stability index came to 3.16.
Take QQVKLIITEEKVCMVCKKKIGNSA [C5L]: the protein stability index stood at 2.34.
On the same count and under the same terms, the value for QQVKHIITEEKVCMVCKKKIGNSA [C5H] was 3.21.
Same read-out and setting: the value for QQVKEIITEEKVCMVCKKKIGNSA [C5E] was 3.75; that for QQVKFIITEEKVCMVCKKKIGNSA [C5F] was 1.96; that for QQVKVIITEEKVCMVCKKKIGNSA [C5V] was 2.22.
On to QQVKNIITEEKVCMVCKKKIGNSA [C5N], for which the protein stability index was determined as 2.79.
With QQVKKIITEEKVCMVCKKKIGNSA [C5K], the protein stability index was 3.61.
For QQVKRIITEEKVCMVCKKKIGNSA [C5R], the protein stability index is 3.48.
Turning to QQVKWIITEEKVCMVCKKKIGNSA [C5W], the protein stability index was 1.94.
Same read-out and setting: the value for QQVKAIITEEKVCMVCKKKIGNSA [C5A] was 3.02; that for QQVKIIITEEKVCMVCKKKIGNSA [C5I] was 2.24.
For the variant QQVKDIITEEKVCMVCKKKIGNSA [C5D], the protein stability index turned out to be 3.86.
QQVKQIITEEKVCMVCKKKIGNSA [C5Q]: the protein stability index came to 3.07.
Still for that read-out and setting: the value for QQVKYIITEEKVCMVCKKKIGNSA [C5Y] was 2.69.
As to QQVKPIITEEKVCMVCKKKIGNSA [C5P], the protein stability index stood at 3.32.
With QQVKMIITEEKVCMVCKKKIGNSA [C5M], the protein stability index came to 1.99.
On to QCVKCIITEEKVCMVCKKKIGNSA [Q2C], for which the protein stability index was 4.17.
Still for that read-out and setting: the value for QDVKCIITEEKVCMVCKKKIGNSA [Q2D] was 3.15; that for QVVKCIITEEKVCMVCKKKIGNSA [Q2V] was 3.17; that for QWVKCIITEEKVCMVCKKKIGNSA [Q2W] was 2.72.
As for QKVKCIITEEKVCMVCKKKIGNSA [Q2K], the protein stability index turned out to be 2.59.
For QPVKCIITEEKVCMVCKKKIGNSA [Q2P], the protein stability index is 2.77.
The same measure, in the same setting: the value for QEVKCIITEEKVCMVCKKKIGNSA [Q2E] was 3.37; that for QFVKCIITEEKVCMVCKKKIGNSA [Q2F] was 2.17.
Still for that read-out and setting: with QSVKCIITEEKVCMVCKKKIGNSA [Q2S] the figure was 3.77; with QIVKCIITEEKVCMVCKKKIGNSA [Q2I], 1.45.
